Measured values reported in PMC9786881 (Viruses, 2022).
Where “and” joins values, the source holds several entries; their conditions need not be identical. Equal entries are not always repeated.

B2: RABV nucleoprotein lacking its N-terminal arm (N[change], residues 24-450) (domain or fragment)
chain: DQYEYKYPAIKDLKKPCITLGKAPDLNKAYKSVLSGMNAAKLDPDDVCSYLAAAMQFFEGTCPEDWTSYGILIARKGDRITPNSLVEIKRTDVDGNWALTGGMELTRDPTVSEHASLVGLLLSLYRLSKISGQNTGNYKTNIADRIEQIFETAPFVKIVEHHTLMTTHKMCANWSTIPNFRFLAGTYDMFFSRIEHLYSAIRVGTVVTAYEDCSGLVSFTGFIKQINLTAREAILYFFHKNFEEEIRRMFEPGQETAVPHSYFIHFRSLGLSGKSPYSSNAVGHVFNLIHFVGCYMGQVRSLNATVIAACAPHEMSVLGGYLGEEFFGKGTFERRFFRDEKELQEYEAAELTKTDVALADDGTVNSDDEDYFSGETRSPEAVYTRIMMNGGRLKRSHIRRYVSVSSNHQARPNSFAEFLNKTYSNDS
B3: full-length RABV phosphoprotein (PFL) (natural protein)
chain: MSKIFVNPSAIRAGLADLEMAEETVDLINRNIEDNQAHLQGEPIEVDNLPEDMKRLHLDDEKSSNLGEMVRVGEGKYREDFQMDEGEDPNLLFQSYLDNVGVQIVRQMRSGERFLKIWSQTVEEIVSYVTVNFPNPPRRSSEDKSTQTTGRELKKETTSAFSQRESQPSKARMVAQVAPGPPALEWSATNEEDDLSVEAEIAHQIAESFSKKYKFPSRSSGIFLYNFEQLKMNLDDIVKEAKNVPGVTRLAHDGSKIPLRCVLGWVALANSKKFQLLVEADKLSKIMQDDLNRYTSC

Columns and labels:
[1] = target: B2; assay: SEC-MALLS; conditions: both partners purified
[2] = target: B2; assay: fluorescence polarisation; conditions: both partners purified
[3] = target: B2; assay: fluorescence polarisation; conditions: both partners purified; remark: listed apart in the source
[4] = target: B3; assay: SEC-SAXS; conditions: both partners purified
SEC-SAXS = target: the molecule itself; assay: SEC-SAXS

B1: RABV phosphoprotein residues 1-68 with C-terminal His6 (P68−His6) (peptide)
chain: MSKIFVNPSAIRAGLADLEMAEETVDLINRNIEDNQAHLQGEPIEVDNLPEDMKRLHLDDEKSSNLGE
Kd [1]: < 1 µM
Kd [2]: 0.0082 ± 0.0006 µM
IC50 [3]: ~1 µM

B2
stoichiometry N [4]: 2 N molecules per P dimer and 1 N molecules per P dimer

B3
stoichiometry N (SEC-SAXS): 2
